B1: OR4K15 (parent)
chain: GUUAACGGUCAUAGGCCAUGGAAACUAGGAGCACCAUUUCGCUGCCAGUGAAGAAAUGAACAAAGAAAAUCUGGGCCAGGCAGGCAUCAAAAGAAAUAGUCUUGCGCUCAACCAGAAAGUCUGUAAUCAUUUUAAGGGUA

Variants of: B1
Test: self-cleavage, relative activity (ratio to wild type); higher = more cleavage; in vitro, sequencing; the parent is a self-cleaving ribozyme

Variant	self-cleavage
A52C A62G	0.91
A52G A78U	0.47
A52G U120C	1.16
A51G U130C	0.54
G50U A82U	0.23
A52G A82G	0.19
A52G A82U	0.2
A51G U132A	1.68
A51G U132C	0.81
A52G G83A	1.07
U49A A96G	1.12
A51U A98U	2.9
U49C U124A	0.48
A51C A110U	0.82
U49C A62U	0.68
U49A A98U	0.26
U49A A98G	0.44
G50U U100G	1.34
G50A A51G	1.82
U49A A90U	1.26
U49C A78C	0.43
U49C A78U	0.37
U49C A78G	0.2
U49C U120G	1.33

Variant	self-cleavage
U49A C121A	0.95
A51G A96G	1.47
U49C U100G	1.72
U49C U100C	2
U49C U100A	0.63
U49C A52U	1.38
G50U A52G	0.42
A51U A118G	0.6
A52G C77A	1.2
G50U A62C	2.27
G50U U127C	1.29
U49C U131C	1.11
A52G A56C	0.99
U49G G75A	0.09
U49C A94U	1.36
A52C A63G	2.56
U49C G80A	0.21
U49C G80U	0.11
U49C A116G	0.82
A52G U70C	0.79
A52G U70A	0.45
A52G U72A	0.4
A51U U97C	1.37
G50U A56G	1.63

Variant	self-cleavage
U49C A129U	0.92
A51G A55U	1.2
A51G A55G	0.97
A51U G58A	1.56
G50A C71U	0.42
U49A U124A	0.56
A52C U87C	1.09
G50A U100G	0.96
G50A U100C	2.01
G50A A95U	1.28
A51G G80A	0.36
G50U C121A	2.92
U49C U108C	0.01
U49C U87C	1.58
U49G A98G	0.14
U49C A86C	0.78
A51U A78G	0.26
A51U A78C	0.2
A52G A116U	0.12
G50C A56G	1.42
A52C A95G	1.94
A51U A68C	1.91
A51U A68G	1.24
A51U G93A	1.71

Variant	self-cleavage
A51U A111G	0.04
A51U A111U	0.06
A51U A59U	0.5
U49A A92G	1.28
A51G A91C	1.97
A51G A91G	0.5
U49A U130C	1.53
A51C U108C	0.01
A51G U100G	1.63
A52G U57C	1.1
A51U G74A	0.22
A51G A59G	0.89
A51G U133C	1.46
G50U G53A	2.2
U49C A96G	1
U49C A96U	1.92
A51G G53U	1.66
A51G A92U	2.09
A51G A92G	1.45
A52G C85U	0.87
A51G A82U	0.25
A51G U103G	0.05
A51G U103A	0.32
A51C A92U	0.57

Variant	self-cleavage
A51G G136U	2.08
G50U A96G	2.5
A51U G106A	0.03
U49C U132C	1.45
U49C U132G	0.91
A51U G84A	0.65
A51G A140G	1.62
A51G A140U	1.35
A51U A56G	0.93
G50U G79A	0.11
G50A A92U	2.15
A51G G104A	0.03
U49C G99U	0.28
A52G A96U	1.86
A52C G84U	0.51
G50A C113A	0
A51U A60G	0.92
A52G A134G	1.25
A51U G104A	0.01
A51C A117G	0.81
U49C U97C	1.29
U49A A125G	0.82
U49A U70A	0.66
U49C U130C	0.77

Variant	self-cleavage
U49A U132C	1.09
U49C A91G	0.77
U49C A91U	1.68
U49C G50U	2.22
U49G U72A	0.32
U49C A125G	0.7
U49C A90C	0.97
U49C U133C	1.76
U49C U133A	1.29
U49G A95G	1.28
A51G U70A	1.23
A51G A98U	2.81
U49A U127C	0.38
U49A U127G	1.97
A51G A116G	0.48
A51G A116U	0.05
A51C A94G	2.16
A52G A95C	0.6
A51U A90G	0.91
A51G A134G	1.55
A51G A134C	1.4
A52C A116G	0.64
A52G G75A	0.23
U49C U72C	0.3

Variant	self-cleavage
A51C A91G	1.33
U49A G138U	1.69
A52G A114G	0.28
A52G A114U	0.14
A51G A62U	1.49
A52G A66U	1.54
A52G A66G	1.75
A52G A117U	0.97
U49C A98U	2.55
U49C A98G	0.48
U49C A98C	1.84
U49C U127G	1.49
U49C U127C	0.94
U49C U127A	2.43
U49A A94G	1.11
G50A A69G	1.85
A52G A94U	2.01
A52G A94G	1.99
A52G C76G	0.03
A52G C76U	0.13
A52G U122A	0.76
A52G U122G	1.94
A51U U103C	1.35
A52C A94G	2.5

Variant	self-cleavage
A51C U102A	0.84
U49A U103C	0.93
U49A U103G	0.01
U49C A54G	1.19
U49C A54U	0.94
U49G U131C	1.56
A52G U103C	0.45
A51U U57C	1.58
G50U A63G	0.92
A52G A91U	2.17
U49G A56G	1.64
A52C A66G	1.59
U49G A59U	1.34
U49G A59G	0.95
A52G A55G	0.97
A51G C109U	0.4
A52G	1.11
A52C	0.57
A51G U139C	1.69
A51U A126G	1.46
A52C A82G	0.55
U49A A118G	1.31
A51G A95U	0.89
A51G A78U	0.35

Variant	self-cleavage
U49G A51G	0.95
A51G U87C	0.86
A51G U87A	1.3
A52G C128U	1.26
A51U U108C	0.02
U49A C107U	0.04
U49A A134G	0.74
U49A A126G	0.99
U49C A66U	1.39
U49C U70C	0.59
U49A U100C	2.15
A51G U102C	2.58
A51C A62G	0.72
A51U A96G	1.32
A52G C121G	2.33
A52G C121U	1.18
A51U A55G	0.55
A51G G79A	0.23
A51G G79U	0.1
U49C U102C	2
U49C U102A	0.53
A51G A118U	0.39
U49C C85G	1.62
U49C G83U	0.71

Variant	self-cleavage
A52G A63G	1.33
A52G U100C	2.01
A52G U100A	0.65
U49C G73A	0.28
G50U U103C	1.23
A52G A110U	1.17
A52G A110C	0.26
A51G U131A	0.59
A51C A59G	1.73
U49A C105U	0.15
A52G A129G	1.3
A52G A129U	0.71
G50U U132C	1.23
U49C A114U	0.12
U49A G137A	1.92
A52G A60G	1.32
A52G A60U	0.9
U49A A114U	0.04
U49A U72C	0.16
U49A U72A	0.36
A51U A114G	0.19
A51G A52G	1.46
A51G A52U	1.49
U49C A55G	1.22

Variant	self-cleavage
A52C A55U	1.72
A52G A86G	1.41
A52G A69G	0.65
U49C A89U	2.12
A51G U72A	0.13
A51U U124C	0.77
U49C A68G	1.55
U49C U122C	0.52
G50A A66U	0.67
A52G C88U	1.39
U49A U131G	1.06
U49C A92U	1.42
U49C A92G	1.47
A51G U124A	1.04
A51U A64U	1.15
A51G A54G	0.81
U49G U130A	0.36
A51U A94C	0.55
A51U A94U	1.26
A51G A69G	1.24
A51G A69U	1.41
U49C A135G	1.97
U49C A135C	0.89
U49G G83A	0.47

Variant	self-cleavage
U49C U139C	1.71
A52C A126G	0.42
A51U U122A	0.74
A51U U122C	1.26
A52C A114G	0.25
A51G A129U	0.76
A52G A90U	1.81
A52G A90G	0.99
A51U C128A	0.45
U49C A117U	1.08
U49C A117G	1.68
A51G A94G	1.2
A51G A125G	0.97
A51G A125U	1.72
U49C A110G	0.12
A51G C71A	0.89
A51G A114U	0.08
A51C A82G	0.67
A52G A98U	2.16
A51U A116G	0.37
G50U U120C	1.29
A51G C121U	2.74
A51U A82C	0.24
A51U U70C	0.46

Variant	self-cleavage
A51G A90G	1.29
U49G A62U	0.74
A52G A62U	1.2
A52G A62G	1.19
A51G G123A	2.08
A51G U120C	0.85
A52C U127A	1.62
A52G A68U	1.66
A52G A68G	1.5
U49A U120C	0.84
U49G A67C	1.97
A52G A118G	1.21
U49C C77U	2.23
A51G U127G	1.9
A51G A135G	1.7
G50U A125U	2.34
A51C A68G	1.2
A51G U122C	0.6
U49C G138C	1.54
A51G A89C	1.6
A52C U103A	0.98
U49A A91G	1
A51G A60U	1.68
A51G A63U	1.83

Variant	self-cleavage
A51G A63G	1.17
A52C A78C	0.21
A51G A86G	1.46
U49C U103C	1.01
U49C G123U	0.88
U49C A134G	1.38
U49G U87C	1.48
A52G A135G	1.44
A52G A135U	1.37
A51C G73C	0
A51G A126C	0.91
G50C C85U	1.4
A52C A89G	1.02
A52G A89C	2.11
A52G C71U	0.44
A52G A67G	1.13
G50A A64G	1.22
A51C A60G	2.31
U49G U108A	0.04
A51U U87C	0.54
U49C A69U	2
U49C A69G	1.2
